Measurements taken from the DeepSol protein solubility set.

Experiment: soluble on expression in E. coli; label from the status in PepcDB or PDB records

Row | Sequence | soluble on expression in E. coli
1 | MSLPHLSLADARNLHLAAQGLLNKPRRRASLEDIPATISRMSLLQIDTINIVARSPYLVLFSRLGNYPAQWLDESLARGELMEYWAHEACFMPRSDFRLIRHRMLAPEKMGWKYKDAWMQEHEAEIAQLIQHIHDKGPVRSADFEHPRKGASGWWEWKPHKRHLEGLFTAGKVMVIERRNFQRVYDLTHRVMPDWDDERDLVSQTEAEIIMLDNSARSLGIFREQWLADYYRLKRPALAAWREARAEQQQIIAVHVEKLGNLWLHADLLPLLERALAGKLTATHSAVLSPFDPVVWDRKRAEQLFDFSYRLECYTPAPKRQYGYFVLPLLHRGQLVGRMDAKMHRQTGILEVISLWLQEGIKPTTMLQKGLRQAITDFASWQQATRVTLGRCPQGLFTDCRTGWEIDPVA | not soluble
2 | MERNELFDLQTLSTRRKIIDRIQVTRMNTGKVDLKTSEFFEQQETQTRSKKKYIWSTGKSKLRRHFFVNRTLPTMKQH | not soluble
3 | MGSDKIHHHHHHMTEQVMNKHQLETGLSILGAPVPGQEIVLNEGALSLLEVLCDQFAAEVPKLLEMRRQKQELIDKGSLPDFLPETRAIRDGDWQIRGIPQDLQDRRVEITGPVDRKMIINALNANVKVFMADFEDSLAPSWIKVIQGQINLRDAVRGEIEYTAPETGKHYTLDDDPAVLIARVRGLHLKEKHVAFNGEAIPGALFDFCLYFYHNYRQLLEKGSGPYFYIPKLESHVEARWWAKVFAYVEERFCLTPGTIKCTCLIETLPAVFEMEEILYELRSNIVALNCGRWDYIFSYIKTLKKHSDRILPDRQAVTMDKPFLSAYSRLLIKTCHKRGALAMGGMAAFIPAKDQAQNEAVLVKVRGDKELEARNGHDGTWVAHPGLADTAMGIFNEYIGEDHVNQLHITRDVDAPILARDLLMPCEGERTESGMRLNIRIALQYIEAWIRGNGCVPIYGLMEDAATAEISRTSIWQWIQHEQKLSNGKLVTKALFKEMLVEELANVKLEVGPDRFTHGSFTQAAVLLEEITTADELVDFLTLPGYEILTQGDNA | not soluble
4 | TLTTPPLELSDAIEYILMPLKAVHFPVYEVALMLSIALRFVPTLMDETEKIMNAQRARGVDFGEGNIFQQMRAVVPLLIPLFVSSFNRAEDLATAMEARGYQGGEGRSKYRILKWHQRDTWATGCFAILTVALIFLRA | not soluble
5 | MTGQNGQVARISPGKFRQLGPVNWLVAKLAARAVGAPQMHLFTTLGYRQYLFWTFAIYTGRLLHGRLPGVDTELVILRVAHLRSCEYELQHHRRMARRRGLDANTQATIFAWPDVPDGDGPRKVLSARQQALLQATDELIKDRTITAGTWERLATHLDPRLLIEFCLLATQYDAIAATITALAIPPDNPQ | soluble
6 | GPGSMMMQRSQKMLLDPASFIERPPRNTLFNIVPQGHEYVVERLGRYHRTLDSGWWVVVPFIDKIRYNYNVKEQGIEIPNQSAITSDNVMVEIDGVLFLKIVDSCKASYNIENPVFNLINLAQTTMRSEIGRMSLDSLFRERASLNQSTVEVLRREANEWGIECKRYEIRDIVVSELVRRSMDLQAEAERKKRKLILESEGESTATINRANGMKIAQQCVADAEKYTAERQSEGAAAAIRVKAAAVSDNISIVSDAIEKAK | not soluble
7 | MNVVKISPRGYCYGVVDAMVLARQAAQNLDLPRPIYILGMIVHNKHVTDAFEEEGIISLDGPNRLDILKQVDKGTVIFTAHGVSPQVRKLAKEKGLTVVDATCPDVTRTHDLIREKSQEGYKFIYVGKKGHPEPEGAIGVAPEFVHLVENVEDVESLDISADKIIITNQTTMSQWDVSEIMKKAMEKYPQAEVHNEICLATQVRQEAVAEQARECDLVIVVGDPKSNNSNRLAQVSEQIAGTKAYRIGDVTELQQEWFDGVETVGVTAGASTPTPITKEVIAFIEKYDPSKPETWTPERKVTLQKILPKVKIKKLEHHHHHH | soluble
8 | MALIRATLPVVEPGRTEIHLPHWDGIEQQHGFIHGGVVGMIADSAAGYAAMTLVPAEASVLTVEYKMNLMAPAEGERLIARGEVVRAGRTLIVTRAEVLALRDGAERLCALMQQTIMVMHARPEKLDAPPAALEHHHHHH | not soluble
9 | MLSTLSKSARLNQTRFIRLSHSAAAAKDAKPKKVAAVDSPSFVMNLFRGKAVTDQVFPYPLNMTDEQKETLGMVMSPLEKMLVEVNDVVKNDETSDIPRAVLDQFAELGTFGVLVPPELEGSGFNNSQMARVAEIVGAYDLGFGVVMGAHQSIGYKGILLEGTDAQKQKYLPDLATGRKFAAFALTEPTTGSDASSVRTRAELSADGKHYVLNGGKIWISNGGFADVFTVFAQTPVKQADGSTKDKMSAFIVERAFGGVTSGPQEKKMGIKGSNTTEVHFDNLKIPVENLLGKEGEGFKVAMNILNNGRFGIPAACTGAMKHCIQKTVDHITTRVQFGKKLQEFGNIQEKLVEMISKLYATESIVYMLSSNMDRGIKEYQLEAAIGKVLASENAWLVCDDAIQVHGGMGFMRETGLERVLRDLRIFRIFEGANDVLRLFIALTGAQHAGKHLAEQASGVGGLIGLAVSRVTGGNTGSNFGQVVDASLQDSAKVLDQQIALFGQTVQGLLMKHKKGIIDRQYEMHRVADAAINIYSSAAVLSRATYAIKNKSSSADFERKVATYYVDKAMKSSNRFLKDAGSGVENASKVATIESLAKEVCGNGGLTLQHPVEL | not soluble
10 | SEEDRRLWMEAMDGREPVYNSNKDNQSEGTAQLDSIGFSIIKKCIHAVETRGINEQGLYRIVGVNSRVQKLLSILMDPKTATETETEICAEWEIKTITSALKTYLRMLPGPLMMYQFQRSFIKAAKLENQESRVSEIHSLVHRLPEKNRQMLHLLMNHLAKVADNHKQNLMTVANLGVVFGPTLLRPQEETVAAIMDIKFQNIVIEILIENHEKIFNTVPETPPSNSQLLL | soluble
11 | MAVTAQAARRKERVLCLFDVDGTLTPARQKIDPEVAAFLQKLRSRVQIGVVGGSDYCKIAEQLGDGDEVIEKFDYVFAENGTVQYKHGRLLSKQTIQNHLGEELLQDLINFCLSYMALLRLPKKRGTFIEFRNGMLNISPIGRSCTLEERIEFSELDKKEKIREKFVEALKTEFAGKGLRFSRGGMISFDVFPEGWDKRYCLDSLDQDSFDTIHFFGNETSPGGNDFEIFADPRTVGHSVVSPQDTVQRCREIFFPETAHEA | soluble
12 | MGSRRYDSRTTIFSPEGRLYQVEYALESISHAGTAIGIMASDGIVLAAERKVTSTLLEQDTSTEKLYKLNDKIAVAVAGLTADAEILINTARIHAQNYLKTYNEDIPVEILVRRLSDIKQGYTQHGGLRPFGVSFIYAGYDDRYGYQLYTSNPSGNYTGWKAISVGANTSAAQTLLQMDYKDDMKVDDAIELALKTLSKTTDSSALTYDRLEFATIRKGANDGEVYQKIFKPQEIKDILVKTGITKKDEDEEADEDMK | soluble
13 | MPVITILGCRMFEDEIMHLLENDPEIEEVLVVENEDCVGIMKKMAEAGLAYTALSPEKIPEKSSETGKGLTLIVYMLELALHAIPENLKKTVYSKVELMSSCSDGILLFYGLCGNVLGKIEEDFKDLGCQVCILKEENGEIVDDCIGAVLGGRKQYLEVLKSCRGVGTFFLTPMWAVNWREMIRTSGLSQNPDDISMSKFVFDYAGYKRVARLDTGLAYEKDFDACVKEFSTLFEFEVTELEGTLHLIENCYAKTKASVFEACPRSQALEHHHHHH | soluble
14 | MGSDKIHHHHHHMRTVQAISGLVTSRFFGTSTRIMASGKTLNTSNINPNVIKMEYAVRGPIVIRAVELEKELATGAQKPFPNVIKANIGDAHAMGQKPITFIRQLLACIVNPEIMKTDKSIPSDVIEHANAFLGSCGGKSAGAYSQSTGVEIVRKHVAEYIKRRDGGIPCNSEDVCLSGGASESIRNVLKLFINHNNAKKVGVMIPIPQYPLYSATIEEFGLGQVGYYLSESSNWSMDEAELERSFNDHCKEYDIRVLCIINPGNPTGQALSRENIETIIKFAQKKNLFLMADEVYQDNVYAQGSQFHSFKKVLVEMGEPYNKMELASFHSVSKGYMGECGMRGGYVEFLNLDPEVYVLFKKMISAKLCSTVLGQAVIDAVVNPPKEGDASYALWKQEKDAVLASLKERATLVEKAYSSIDGISCNPVQGAMYAFPQITIPQRAVEKAQSLNQQPDFFYAMQLLETTGICIVPGSGFGQKDGTYHFRTTILPQPELFKDMLSRFTDFHQKFLAEYKRLYCHFHLTNNRTSDSFWHTLIDGFPKYKVFVQNRRSTQCAFHSIQLSRF | not soluble
15 | MSLSVEAMIGQLNAEIKRLDRLIRSHLNQHPELKKDFDLLTSIKSVGYQLGLNMLVILRSHDFATAEQAAAFLGVVPVEKYSGTSVRGCPKLSKIGPPEIRAKLYLASLCGLRFNPLMKAMYERLCLRGKGKMCAIGALMRKLVHWCYGVLKTQKPFDVGYLSSYARSACKAAEGHHHHHH | soluble
